167 variants from the RNAGym collection of RNA variant scans (doi:10.7554/elife.80360) can be followed below.

To fix the notation:
B1: Twister Ribozyme (parent)
chain: AACACUGCCAAUGCCGGUCCCAAGCCCGGAUAAAAGUGGAGGGGGCGG

The series covers variants of B1. The series can be described thus: self-cleavage, relative activity (ratio to wild type); higher = more cleavage; co-transcriptional.
Regarding A4C C5G, the self-cleavage was determined as 0.0446. Then U18A C21U, with 0.0595; and G13A U31A, with 1.02; and C27A G36A, with 0.121. Then C26G C46G, with 0.218. The result for A22U G44C reads 0.836; that for U12A A33C, 1.04; that for G13A C25G, 0.0804.

On to C3G A11G, for which the self-cleavage amounted to 0.503. With C21A G39C, the self-cleavage turned out to be 0.116. Then G16C C26A, with 0.35; and A34C G38C, with 0.157; and G42U G48A, with 0.25.

For the variant A40U C46U, the self-cleavage amounted to 0.163. The result for A10G G42C reads 0.618; that for C5G A34C, 0.117. The result for G42A G47U reads 0.325; that for A23C G29U, 0.124. The result for U12G C27G reads 0.136.

With U6A C14G, the self-cleavage came out at 0.124. Then C14A G36A, with 0.651. The result for G7U G42U reads 0.0886.

As to C9U C15U, the self-cleavage came out at 0.594. The result for G16A C46U reads 0.895; that for G16U G17C, 0.105.

For G43A C46U, the self-cleavage is 0.315. Then G17U G38A, with 0.206.

In the case of A4U G45A, the self-cleavage worked out at 0.105.

In the case of C15G C26A, the self-cleavage was 0.0956. Then C5U G28U, with 0.67; and A10C C14G, with 0.289; and A34U G47A, with 0.601. The result for A1C C20G reads 0.0894; that for A1C C20U, 0.187. Then A1U A34U, with 0.0731; and A34C G45U, with 0.167. Take C5U G17U: the self-cleavage worked out at 0.116.

Consider C5A C15G, for which the self-cleavage was found to be 0.0768. On to C21A G43C, for which the self-cleavage was 0.0785. Then C15G G28U, with 0.761; and G13A U37G, with 0.233. As to U12C U31C, the self-cleavage turned out to be 0.938.

In the case of A4U A30G, the self-cleavage was 0.176. Then G36U G42U, with 0.103; and C3U U37C, with 0.172; and C19U A40C, with 0.152. The result for G41U G47A reads 0.349. Consider A22G G41U, for which the self-cleavage was determined as 0.119.

Turning to C5G C26A, the self-cleavage was determined as 0.126. The result for C3U C9A reads 0.147. The result for C3A G41U reads 0.0613; that for A33U G36A, 0.282; that for C14U C25G, 0.627. The result for C5U U37C reads 0.283; that for A33C G47A, 0.782; that for C9U C46A, 0.549.

For C14G G38U, the self-cleavage amounted to 0.111. Then C19U C20U, with 0.327; and C15A G29A, with 0.793; and A4C A11C, with 0.0104. Consider A4C A11U, for which the self-cleavage is 0.16. Then G17C G47A, with 0.0753. Then C27U A34U, with 0.567; and A10G C21A, with 0.137. For C3U A10C, the self-cleavage was determined as 0.61. The result for C15U C26A reads 0.126; that for C15G G42A, 0.0628. Then A33G A35G, with 0.865; and A22G A33U, with 0.237; and A11G A30G, with 0.674. Then A23C G41C, with 0.112; and G42U C46G, with 0.309.

For U12A G17A, the self-cleavage amounted to 0.85.

A33C G42A: the self-cleavage came out at 0.177.

Regarding G17C C25A, the self-cleavage was 0.0882. Then C5G G36C, with 0.966; and U12C G48U, with 1.03. In the case of C20A A23G, the self-cleavage is 0.0659. Take G17U G24C: the self-cleavage worked out at 0.0691. Then C15U A33C, with 0.839; and A2C C9G, with 0.0449; and G13U G29A, with 0.368. The result for A1U A4C reads 0.0725.

Turning to U37C G48C, the self-cleavage came to 0.843. The result for U6C A30U reads 0.493; that for G16U C25A, 0.206; that for A32G U37G, 0.716. Then A4C A32C, with 0.101; and U12G G36U, with 0.397; and C19A G24C, with 0.0773.

Consider U18G C21U, for which the self-cleavage worked out at 0.0712. Turning to A10C G48C, the self-cleavage came to 1.03. Then A2G A22G, with 0.107; and G41A G43U, with 0.135; and U6G A35U, with 0.549.

Regarding G39C G42A, the self-cleavage amounted to 0.148.

In the case of A2G C19A, the self-cleavage worked out at 0.0723. Then G17A G43C, with 0.129.

Turning to U12G C14G, the self-cleavage was 0.124. Consider C14U G44U, for which the self-cleavage is 1.15. The result for G29A A33C reads 0.768. Then U12A A30C, with 0.893; and C5A U37A, with 0.547. Then C5G C21G, with 0.155; and C46U G47C, with 1.6; and A2U A34U, with 0.189.

Take C8U A22C: the self-cleavage is 0.863.

With C27G G41C, the self-cleavage amounted to 0.0915.

Regarding C27A A34U, the self-cleavage came to 0.145. For U6G C20A, the self-cleavage was found to be 0.0634.

For the variant U6G C20G, the self-cleavage worked out at 0.0753.

For the variant A35U G44C, the self-cleavage came out at 0.974. Consider A34C G41U, for which the self-cleavage stood at 0.112.

G36C G41U: the self-cleavage amounted to 0.0915. The result for C8G A40C reads 0.157; that for A30U G41A, 0.621. Turning to G29U A32G, the self-cleavage turned out to be 0.781.

On to G28A U31G, for which the self-cleavage was 0.916. Regarding C5G G13C, the self-cleavage amounted to 0.0798.

Take G16C U18A: the self-cleavage was 0.336. The result for C21U A23C reads 0.0826; that for C25G G36C, 0.0714. Then U37C C46U, with 0.627; and G13U G24C, with 0.0723; and C25G A33U, with 0.246. The result for U12C U37G reads 0.72; that for C20U A34G, 0.373. For the variant G7U A35C, the self-cleavage was 0.0996. The result for C14U U31C reads 1.22; that for C9A C27G, 0.0551; that for C19A U31A, 0.219.

Consider U6A G44A, for which the self-cleavage came to 0.943. The result for A1C U18G reads 0.136. Then C9A G16A, with 0.372. Then C21U G41C, with 0.434. Turning to C27A G28U, the self-cleavage was 0.37.

In the case of G38U C46A, the self-cleavage is 0.794. Then C19U A30U, with 0.82. The result for C15G C27A reads 0.198; that for G7C C21U, 0.0396; that for C15G C21U, 0.0717. Then A1G, with 0.461; and C15A A23U, with 0.0658.

With A30U G42U, the self-cleavage worked out at 0.434. Then A35G G43U, with 0.13. The result for A30C G45A reads 0.733; that for C8U G47A, 0.43; that for C21U A33G, 0.146. On to A11G C46A, for which the self-cleavage was 0.808. Then A11G C46G, with 0.938; and C8U U31G, with 0.603. Turning to A4C A40U, the self-cleavage came to 0.0853. Then C15A G17C, with 0.0439; and G42A G45C, with 0.187; and U18A, with 0.667. Regarding G16A U37G, the self-cleavage amounted to 0.195. The result for G16A G42C reads 0.241; that for C15A G42C, 0.182; that for A2C G28U, 0.0994. Then A22G C27A, with 0.0974.

For G16A G28A, the self-cleavage was 0.48. With C14U A33U, the self-cleavage worked out at 1.07.

As for A1G U18G, the self-cleavage amounted to 0.136.

For the variant C3A A10G, the self-cleavage is 0.322. The result for G24U G43C reads 0.076; that for C26A A40C, 0.119; that for G13U G17A, 0.078.
